Results from PMC5278397.

Target: gp130 extracellular domain (UniProt P40189)
Assay: SPR; gp130 extracellular domain amine-coupled on CM5; fixed excess of IL-6 and differing concentrations of gp80 (0–250 nM) with or without VHH6; 100 μl/min; 1:1 binding model; 25 °C, HBS-P+; BIAcore T200

Sequence of gp130 extracellular domain (P40189 23-619): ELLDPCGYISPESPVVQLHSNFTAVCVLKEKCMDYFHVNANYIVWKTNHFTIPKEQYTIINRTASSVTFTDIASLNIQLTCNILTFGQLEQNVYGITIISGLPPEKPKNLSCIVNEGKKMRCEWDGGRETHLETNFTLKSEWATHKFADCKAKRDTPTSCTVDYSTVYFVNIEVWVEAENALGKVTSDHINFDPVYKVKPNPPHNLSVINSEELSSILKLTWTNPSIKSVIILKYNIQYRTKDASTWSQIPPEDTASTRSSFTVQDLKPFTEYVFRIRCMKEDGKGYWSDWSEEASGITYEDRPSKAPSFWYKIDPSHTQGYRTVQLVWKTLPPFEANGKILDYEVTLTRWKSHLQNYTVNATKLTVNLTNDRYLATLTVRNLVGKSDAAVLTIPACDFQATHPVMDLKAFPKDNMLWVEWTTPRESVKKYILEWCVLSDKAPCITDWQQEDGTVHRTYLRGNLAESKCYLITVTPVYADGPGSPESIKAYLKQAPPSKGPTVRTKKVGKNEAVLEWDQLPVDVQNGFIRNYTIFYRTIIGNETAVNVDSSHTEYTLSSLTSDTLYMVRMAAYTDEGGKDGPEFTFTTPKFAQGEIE
Sequence of IL-6–gp80 complex (IL-6 with gp80V4) (P05231 49-212): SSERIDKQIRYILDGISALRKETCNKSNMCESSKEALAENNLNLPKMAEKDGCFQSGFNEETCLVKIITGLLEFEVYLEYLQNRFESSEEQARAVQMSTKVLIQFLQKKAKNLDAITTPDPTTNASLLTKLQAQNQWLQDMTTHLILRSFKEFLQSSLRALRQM
Sequence of IL-6–gp80 complex (IL-6 with gp80V4) (P08887 111-322): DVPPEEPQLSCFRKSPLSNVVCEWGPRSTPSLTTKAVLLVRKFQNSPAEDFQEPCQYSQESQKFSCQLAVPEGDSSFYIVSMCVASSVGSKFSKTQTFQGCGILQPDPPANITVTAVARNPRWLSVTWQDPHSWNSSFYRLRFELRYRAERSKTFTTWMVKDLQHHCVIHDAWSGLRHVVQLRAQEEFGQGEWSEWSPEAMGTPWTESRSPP

koff: 0.037 s⁻¹
kon: 360000 M⁻¹ s⁻¹
Substance: IL-6–gp80 complex (IL-6 with gp80V4) (from UniProt P05231 49-212; P08887 111-322)
